Assay results published in patent publication US20170052184A1.
Like-named read-outs stand apart in the source and are kept apart here.

Columns and labels:
[1] = molecular target: C113T109N biotin labeled HCV core peptide (hepatitis C virus); test: EIA; Ab 500 ng/mL captured on anti-mouse Fc; bt-peptide 500 ng/mL
[2] = molecular target: 92-133 biotin labeled HCV core peptide (hepatitis C virus) (UniProt P26664); test: as above
[3] = molecular target: Mut6T110S biotin labeled HCV core peptide (hepatitis C virus); test: as above
[4] = molecular target: Mut1T110N biotin labeled HCV core peptide (hepatitis C virus); test: as above
[5] = molecular target: C113T109N biotin labeled HCV core peptide (hepatitis C virus)
[6] = molecular target: 92-133 biotin labeled HCV core peptide (hepatitis C virus) (UniProt P26664)
[7] = molecular target: Mut6T110S biotin labeled HCV core peptide (hepatitis C virus)
[8] = molecular target: Mut1T110N biotin labeled HCV core peptide (hepatitis C virus)
[9] = molecular target: C113T109N biotin labeled HCV core peptide (hepatitis C virus); test: EIA; Ab 0.977 ng/mL captured on anti-mouse Fc; bt-peptide 500 ng/mL
[10] = molecular target: 92-133 biotin labeled HCV core peptide (hepatitis C virus) (UniProt P26664); test: as above
[11] = molecular target: Mut6T110S biotin labeled HCV core peptide (hepatitis C virus); test: as above
[12] = molecular target: Mut1T110N biotin labeled HCV core peptide (hepatitis C virus); test: as above
[13] = molecular target: C113T109N biotin labeled HCV core peptide (hepatitis C virus); test: EIA; Ab 7.813 ng/mL captured on anti-mouse Fc; bt-peptide 500 ng/mL
[14] = molecular target: 92-133 biotin labeled HCV core peptide (hepatitis C virus) (UniProt P26664); test: as above
[15] = molecular target: Mut6T110S biotin labeled HCV core peptide (hepatitis C virus); test: as above
[16] = molecular target: Mut1T110N biotin labeled HCV core peptide (hepatitis C virus); test: as above
[17] = molecular target: C113T109N biotin labeled HCV core peptide (hepatitis C virus); test: EIA; Ab 1000 ng/mL captured on anti-mouse Fc; bt-peptide 500 ng/mL
[18] = molecular target: 92-133 biotin labeled HCV core peptide (hepatitis C virus) (UniProt P26664); test: as above
[19] = molecular target: Mut6T110S biotin labeled HCV core peptide (hepatitis C virus); test: as above
[20] = molecular target: Mut1T110N biotin labeled HCV core peptide (hepatitis C virus); test: as above

HCV C11-3 monoclonal antibody
signal at 492 nm [1]: 0.0882 OD 492 nm | signal at 492 nm [2]: 1.95 OD 492 nm | signal at 492 nm [3]: 2.24 OD 492 nm | signal at 492 nm [4]: 0.0765 OD 492 nm | signal at 492 nm [5]: 0.116 OD 492 nm | signal at 492 nm [6]: 1.01 OD 492 nm | signal at 492 nm [7]: 0.807 OD 492 nm | signal at 492 nm [8]: 0.11 OD 492 nm | signal at 492 nm [9]: 0.104 OD 492 nm | signal at 492 nm [10]: 0.116 OD 492 nm | signal at 492 nm [11]: 0.101 OD 492 nm | signal at 492 nm [12]: 0.0755 OD 492 nm | signal at 492 nm [13]: 0.119 OD 492 nm | signal at 492 nm [14]: 0.562 OD 492 nm | signal at 492 nm [15]: 0.344 OD 492 nm | signal at 492 nm [16]: 0.0966 OD 492 nm | signal at 492 nm [17]: 0.0806 OD 492 nm | signal at 492 nm [18]: 1.87 OD 492 nm | signal at 492 nm [19]: 2.15 OD 492 nm | signal at 492 nm [20]: 0.0721 OD 492 nm
